Laboratory results as given in the nanobody polyreactivity screen of Harvey et al. (2022).

Assay: yeast display, Sf9 membrane polyspecificity reagent, FACS + sequencing; frameworks hold sequencing errors
Outline: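 In a synthetic yeast display library (Saccharomyces cerevisiae BJ5465), nanobody expression was induced with galactose for 36–48 hours. FACS gates were set low and high (top ~1%) using anti-HA fluorescence for expression and streptavidin fluorescence for binding of the Sf9 membrane reagent. Each polyreactivity label is drawn from the gate of origin.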

Which “polyreactivity (PSR sort gate)” value does the source give for “QVQLVESGGGLVQAGGSLRLSCAASGLTFYSYAMGWYRQAPGKERELVAAITWSGGGTYYADSVKGRFTISRDNAKNTVYLQMNSLKPEDTAVYYCAALSYNGVRYYYWGQGTQVTVSS” here?
Its value is “high polyreactivity”.

Which “polyreactivity (PSR sort gate)” value does the source give for “QVQLVESGGGLVQAGGSLRLSCAASGLTFYSYAMGWYRQAPGKERELVAAITWSGGGTYYADSVKGRFTISRDNAKNTVYLQMNSLKPVDTADYYCAADYWGYDIYYGLTERESWGQGTQVTVSS” here?
Its value is “high polyreactivity”.

With “QVQLVESGGGLVQAGGSLRLSCAASGLTFYTYAMGWYIQAPGTERELVAAISSGGSTNYADSVKGRFTISRDNAKNTVYLQMNSLKPEDTAVYYCAADPSYYTYFSFDLSESDYWGQGTQVTVSS” as the sequence, how does the “polyreactivity (PSR sort gate)” value read?
The value was “low polyreactivity”.

Which “polyreactivity (PSR sort gate)” value does the source give for “QVQLVESGGGLVQAGGSLRLSCAASGLTFYTYAMGWYRQAPGKERELVAAISTNGGSTYYADSVKGRFTISRDNAKNTVYLQMNSLKPEDTAVYYCAKEGGTYRIFNYWGQGTQVTVSS” here?
The value was “low polyreactivity”.

For “QVQLVESGGGLVQAGGSLRLSCAASGLTFYTYPMGWYRQAPGKERELVAAISSGGSTNYADSVKGRFTISRDNAKNTVYLQMNSLTPEDTAVYYCAADPSYFTYFSFDLSESDYWGKGTQVTVSS”, which “polyreactivity (PSR sort gate)” value is on record?
Its value is “low polyreactivity”.

For “QVQLVESGGGLVQAGGSLRLSCAASGLTFYVYAMGWYRQAPGKERELVAAISSGGRTYYADSVKGRFTISRDNAKNTVYLQMNSLKPEDTAVYYCAAVRHRNYGYWGQGTQVTVSS”, which “polyreactivity (PSR sort gate)” value is on record?
The value was “high polyreactivity”.

For “QVQLVESGGGLVQAGGSLRLSCAASGLTFYYYAMGWYRQAPGKERELVAAISRSGGSTYYADSVKGRFTISRDNAKNTVYLQMNSLKPEDTAVYYCAAYGPASVYEVAMDYWGQGTQVTVSS”, which “polyreactivity (PSR sort gate)” value is on record?
Its value is “high polyreactivity”.

Which “polyreactivity (PSR sort gate)” value does the source give for “QVQLVESGGGLVQAGGSLRLSCAASGLTFYYYTMGWYRQAPGKERELVAAITSGGSTYYADSVKGRFTISRDNAKNTVYLQMNSLKPEDTAVYDCAAVPSRYGRYRYYYWGQGTQVTVSS” here?
The value was “high polyreactivity”.

Which “polyreactivity (PSR sort gate)” value does the source give for “QVQLVESGGGLVQAGGSLRLSCAASGLTIITNAMGWYRQAPGKERELVAAISGTGGSTYYADSVKGRFTISRDNAKNTVYLQMNSLKPEDTAVYYCAAAPYTFWVGDSWGQGTQVTVSS” here?
The value was “high polyreactivity”.

With “QVQLVESGGGLVQAGGSLRLSCAASGLTILDNAMGWYRQAPGKERELVATISGGGSTYYADSVKGRFTISRDNAKNTVYLQMNSLKPEDTAVYYWNAAYVGGPWWYRYTYNYWGQGTQVTVSS” as the sequence, how does the “polyreactivity (PSR sort gate)” value read?
Its value is “low polyreactivity”.

With “QVQLVESGGGLVQAGGSLRLSCAASGLTIRYYAMGWYRQAPGKERELVAAITRGGSTYYADSVKGRFTISRDNAKNTVYLQMNSLKPDDTAVYYCAAYDVRYNTYDYDYWGQGTQVTVSS” as the sequence, how does the “polyreactivity (PSR sort gate)” value read?
The value was “high polyreactivity”.

With “QVQLVESGGGLVQAGGSLRLSCAASGLTIWRYAMGWYRQAPGKEREFVATISQNGGRTYYADSVKGRFTISRDNAKNTVYLQMQSLKPEDTAVYYCAADDWRWGYDYWGQGTQVTVSS” as the sequence, how does the “polyreactivity (PSR sort gate)” value read?
Its value is “high polyreactivity”.

For “QVQLVESGGGLVQAGGSLRLSCAASGLTLAWYAMGGYRQAPGKERELVAAISWSGDSTYYADSVKGRFTISRDNAKNTVYLQMNSLKPEDTAVYYCATRVYGGYGYWGQGTQVTVSS”, which “polyreactivity (PSR sort gate)” value is on record?
The value was “high polyreactivity”.

With “QVQLVESGGGLVQAGGSLRLSCAASGLTLRRYAMGWYRQAPGKEREMVASINSGTSTKYADSVKGRFTISRDNAKNTVYLQMNSLKPEDTAVYYCGAAGYFPTAGSRRAYYYWGQGTQVSVSS” as the sequence, how does the “polyreactivity (PSR sort gate)” value read?
The value was “high polyreactivity”.

Which “polyreactivity (PSR sort gate)” value does the source give for “QVQLVESGGGLVQAGGSLRLSCAASGLTLTYYAMGWYRQAPGKERELVAAISRSGGSTHYADSVKGRFTISRDNAKNTVYLQMNSLKPEDTAVYYCNAQQGRYWSAKGYDYWGQGTQVTVSS” here?
The value was “high polyreactivity”.

For “QVQLVESGGGLVQAGGSLRLSCAASGLTLYRNAMGWYRPAPGKVRELVAAITKSGARTYYADSVKGRFTISRDNAKNTVYLQMNSLKPEDTAVYYCAADALNTYNYWGQGTQVTVSS”, which “polyreactivity (PSR sort gate)” value is on record?
The value was “high polyreactivity”.

Which “polyreactivity (PSR sort gate)” value does the source give for “QVQLVESGGGLVQAGGSLRLSCAASGLTLYYYAMGWYRQAPGKERELVAAISYSGGSTYYADSVKGRFTISRDNAKNTVYLQMNSLKPEDTAVYYCAADGDSDIRDDYWGQGTQVTVSS” here?
The value was “low polyreactivity”.

With “QVQLVESGGGLVQAGGSLRLSCAASGLTSTDNAMGWYRQAPGKERELVAGITTGGSTYYADSVKGRFTISRDNAKNTVYLQMNSLKPEDTAVYYCNAPTYADTTYDYWGQGTQVTVSS” as the sequence, how does the “polyreactivity (PSR sort gate)” value read?
Its value is “low polyreactivity”.

With “QVQLVESGGGLVQAGGSLRLSCAASGMGWYRQAPGKERELVARISGGVSTNYADSVKGRFTISRDNAKNTVYLQMNSLKPEDTAVYYCAADPLDTYDYWGQGTQVTVSS” as the sequence, how does the “polyreactivity (PSR sort gate)” value read?
The value was “low polyreactivity”.

Which “polyreactivity (PSR sort gate)” value does the source give for “QVQLVESGGGLVQAGGSLRLSCAASGMICGVYAMGWYRQAPGKERELVAAIDGNGSSTYYADSVKGRFTISRDNAKNTVYLQMNSLKPEDTAVYYCAAGYWSYLYYWYDFDYWGQGTQVTVSS” here?
Its value is “low polyreactivity”.

With “QVQLVESGGGLVQAGGSLRLSCAASGMIFSDYSMGWYRQATGKERELVATITRSVRTSYADSVKGRFTISSDNAKNTVYLQMNSLKPEDTAVYYCNADVVGAVIAFDYWGQGTQVTVSS” as the sequence, how does the “polyreactivity (PSR sort gate)” value read?
The value was “low polyreactivity”.

Which “polyreactivity (PSR sort gate)” value does the source give for “QVQLVESGGGLVQAGGSLRLSCAASGMTFSKYVMGWYRQAPGKERELVAAITWSGGRTYYADSVKGRFTISRDNAKNTVYLQMNSLKPEDTAVYYCNSKLKGLGYEYDYWGQGTQVTVSS” here?
Its value is “high polyreactivity”.

Which “polyreactivity (PSR sort gate)” value does the source give for “QVQLVESGGGLVQAGGSLRLSCAASGNAMGWYRQAPGKERDLVAAITRRGGSTYYADSVKGRFTISRDNAKNTVYLQMNSLKPEDTAVYYCAADNPSYNLWYGYWGQGTQVTVSS” here?
Its value is “low polyreactivity”.

With “QVQLVESGGGLVQAGGSLRLSCAASGNAMGWYRQAPGKERELVAAITRRGGSTYYADSVKGRFTISRDNAKNTVYLQMNSLKPEDTAVYYCAAENPSYNLCYGYWGQGTQVTVSS” as the sequence, how does the “polyreactivity (PSR sort gate)” value read?
The value was “low polyreactivity”.

With “QVQLVESGGGLVQAGGSLRLSCAASGNHLRSLSLGWNRQAPGKQRELVAAITSSGASTYYADSVKGRFTNSRDNAKNSVYLQMNSLKPEDSAVYYCAAYLFRRYDYWGQGTQVSVSS” as the sequence, how does the “polyreactivity (PSR sort gate)” value read?
Its value is “low polyreactivity”.

For “QVQLVESGGGLVQAGGSLRLSCAASGNIFDLYAMGWYRQAPGKERELVAAITRSSSRTYYADSVKGRFTISRDNAKNTVYLQMNSLKPEDTAVYYCNKRWITSYYTRYDYWGQGTQVTVSS”, which “polyreactivity (PSR sort gate)” value is on record?
The value was “high polyreactivity”.

With “QVQLVESGGGLVQAGGSLRLSCAASGNIFDPYAMGWYIQAPGKERELVAVINASGDSTYYADSVKGRFTISRDNAKNTVYLQMNSLKPEDTAVYYCAADHRGEYDYWGQGTQVTVSS” as the sequence, how does the “polyreactivity (PSR sort gate)” value read?
The value was “low polyreactivity”.

Which “polyreactivity (PSR sort gate)” value does the source give for “QVQLVESGGGLVQAGGSLRLSCAASGNIFEYYAMGWYRQAPGKERELVATITSGGSTNYADSVKGRFTISRDNAKNTVYLQMNSLKPEDTAVYYCNADIISVSVYYFIVEYDYWGQGTQVTVSS” here?
The value was “low polyreactivity”.

With “QVQLVESGGGLVQAGGSLRLSCAASGNIFFGNTMGWYRQAPGKERELVAAISRSGGSTYYADSVKGRFTISRDNAKNTVYLQMNSLKPEDTAVYYCAAEYYGWPYDSWGQGTQVTVSS” as the sequence, how does the “polyreactivity (PSR sort gate)” value read?
Its value is “high polyreactivity”.

Which “polyreactivity (PSR sort gate)” value does the source give for “QVQLVESGGGLVQAGGSLRLSCAASGNIFFSNAMGWYRQAPGKERELVASISQSGGSTYYADSVKGRFTISRDNAKNTVYLQMNSLKPEDTAVFYCAATQVRRGPAWGRDYWGQGTQVTVSS” here?
Its value is “low polyreactivity”.

Which “polyreactivity (PSR sort gate)” value does the source give for “QVQLVESGGGLVQAGGSLRLSCAASGNIFFTNAMGWYRQAPGKERELVATISFRGTSTYYADSVKGRFTISRDNAKKTVYLQMNSLKPEDTAVYYCAARYSVFHRARVNLLGWGLYYWGQGTQVTVSS” here?
The value was “low polyreactivity”.

With “QVQLVESGGGLVQAGGSLRLSCAASGNIFGDYAMGWYRQAPGKERELVAAITQTGGNTYYADSVKGRFTISRDNAKNTVYLQMNSLKPEDTAVYYCNKVSVVYSRSKGFYYTYLKYEYWGQGTQVTVSS” as the sequence, how does the “polyreactivity (PSR sort gate)” value read?
The value was “low polyreactivity”.

Which “polyreactivity (PSR sort gate)” value does the source give for “QVQLVESGGGLVQAGGSLRLSCAASGNIFGENAMGWYRQAPGKERELVAAITRIDGNTYYADSVKGRVTISRDNAKNTVYLQMNSLKPEDTAVYYCATDEPVGRYQHNYYWGQGTQVTVSS” here?
Its value is “low polyreactivity”.

For “QVQLVESGGGLVQAGGSLRLSCAASGNIFGFNAMGWYRQAPGKERELVAAINSGGSTYYADSVKGRFTISRDNAKNTLYLQMNSLKPEDTAVYYCAAVRGKYRFGFWGQGTQVTVSS”, which “polyreactivity (PSR sort gate)” value is on record?
Its value is “high polyreactivity”.

For “QVQLVESGGGLVQAGGSLRLSCAASGNIFGLYAMGWYRQAPGTERELVAAISFSDTSTYYADSVKGRYTISRDNAKNTVYLQMNSLKPEDTAVYYCAAELWFNNGEHNYWGQGTQVTVSS”, which “polyreactivity (PSR sort gate)” value is on record?
The value was “high polyreactivity”.

With “QVQLVESGGGLVQAGGSLRLSCAASGNIFGVNAMGWYRQAPGKERELVAAITCSDSSTNYADSVKGRFTISRDNAKNTVYLQMNSLKPEDTAVYYCATRVWRSAQSRWYGYDYWGQGTQVTVSS” as the sequence, how does the “polyreactivity (PSR sort gate)” value read?
The value was “high polyreactivity”.

For “QVQLVESGGGLVQAGGSLRLSCAASGNIFGYYAMGWYRQAPGKERELVAAITTTGGSTYYADSVKGRFTISRDNAKNTVYLQMNSLKPEDTAVYYCAAETGYWYYYWGQGTQVTVSS”, which “polyreactivity (PSR sort gate)” value is on record?
The value was “high polyreactivity”.

For “QVQLVESGGGLVQAGGSLRLSCAASGNIFHVNAMGWYRQAPGKERELVAGITWSGGSTYYADSVKGRFTISRDNAKNTVYLQMNSLKPEDTAVYYCAATGWYFGYGRYGYWVQGTQVTVSS”, which “polyreactivity (PSR sort gate)” value is on record?
The value was “high polyreactivity”.

With “QVQLVESGGGLVQAGGSLRLSCAASGNIFIHYAMGWYRQAPGKERELVAAITWSGGSTYYADSVKGRFTISRDNAKNTVYLQMNSLTPEDTAVSYCNSVSKYGPADGYGDYWGQGTQVTVSS” as the sequence, how does the “polyreactivity (PSR sort gate)” value read?
The value was “high polyreactivity”.

Which “polyreactivity (PSR sort gate)” value does the source give for “QVQLVESGGGLVQAGGSLRLSCAASGNIFKHYAMGWYRQAPGKERELVAAITWSGGSTHYADSVKGLFTISRDNAKNTVYLQMNSLKPEDTAVYYCAARGWWPGTKWTRYDYWGQGTQVTVSS” here?
The value was “high polyreactivity”.

With “QVQLVESGGGLVQAGGSLRLSCAASGNIFKVYVMGWYRQAPGKERELVAAISGSGGSTYYADSVKGRFTISRDNAKNTVYLQMNSLKPEDTAVYYCNKVFKVTAARSFGYWGQGTQVTVSS” as the sequence, how does the “polyreactivity (PSR sort gate)” value read?
The value was “low polyreactivity”.
